Several values for one entry are separate records, joined by “and”; a condition that tells them apart may be missing. Equal values may be shown once.
Key:
[1] = target: murine norovirus (MNV) RNA-dependent RNA polymerase (RdRp), native (murine norovirus (MNV)); assay: negative-stain electron microscopy; RdRp alone, 1-6 μM protein, 1 h at room temperature, uranyl formate stain; 2D class averages compared with projections of the hexamer model
[2] = target: murine norovirus (MNV) RNA-dependent RNA polymerase (RdRp), native (murine norovirus (MNV)); assay: SPR; data not shown; immobilised RdRp; Biacore2000, 1:1 Langmuir kinetics
[3] = target: murine norovirus (MNV) RNA-dependent RNA polymerase (RdRp), native (murine norovirus (MNV)); assay: cross-linking; 0.001% glutaraldehyde, room temperature 6 min; 50 mM HEPES pH 7.4, 5 mM MgCl2, 5 mM DTT, 1 μM oligo(A)15, 2 μM RdRp, 6 μM VPg; SDS-PAGE and western blot with anti-RdRp or anti-VPg antisera
[4] = target: murine norovirus (MNV) RNA-dependent RNA polymerase (RdRp), native (murine norovirus (MNV)); assay: crystal structure; RdRp incubated with VPg at a molar ratio of 1:2 with UTP or GTP, oligo(A) or oligo(C), 2 mM MnCl2, 2 mM MgCl2; P21, six monomers in the asymmetric unit; 3.1 Å
[5] = target: murine norovirus (MNV) RdRp D331A mutant (murine norovirus (MNV)); assay: not stated; D331A and L354D RdRp by themselves, in the absence of VPg; told only in the discussion
[6] = target: murine norovirus (MNV) RdRp L354D mutant (murine norovirus (MNV)); assay: as above
[7] = target: murine norovirus (MNV) RdRp L354D mutant (murine norovirus (MNV)); assay: SPR; Biacore2000; RdRp or mutant RdRp immobilised on a CM5 chip (amine coupling, sodium acetate pH 5.0); analyte in 20 mM Tris-HCl pH 8.0, 100 mM NaCl, 5 mM MgCl2; 1:1 Langmuir kinetics
[8] = target: murine norovirus (MNV) RNA-dependent RNA polymerase (RdRp), native (murine norovirus (MNV)); assay: as above
[9] = target: murine norovirus (MNV) RdRp D331A mutant (murine norovirus (MNV)); assay: as above
[10] = target: murine norovirus (MNV) RNA-dependent RNA polymerase (RdRp), native (murine norovirus (MNV)); assay: as above; remark: listed apart in the source

“murine norovirus (MNV) RNA-dependent RNA polymerase (RdRp), native (enzyme)” was tested, and the stoichiometry N [1] was 6, the Kd [2] was 2.2 nM and the stoichiometry N [3] was 2 and 3 and 6. For the same substance, the stoichiometry N [4] was 6.

Substance “murine norovirus (MNV) RdRp D331A mutant (enzyme)” has a stoichiometry N [5] of 6.

“murine norovirus (MNV) RdRp L354D mutant (enzyme)” was tested, and the stoichiometry N [6] was 6.

With “murine norovirus (MNV) VPg(1-73) (domain or fragment)” the Kd [2] was 17 nM.

For “murine norovirus (MNV) VPg(1-124), full length (natural protein)”, the Kd [7] was 210 nM, the Kd [8] was 8.7 nM and the Kd [9] was 23 nM. For the same substance, the Kd [10] was 8.9 nM.

— article PMC6046605
